Measured values as given in a protein production outcome set (Wang et al. 2014).

Assay: label from the status in PepcDB records

Sequence | protein production
MIFMGNKVKYNLKNVHAAKLTETDSDGTTTFSYAEPKAIPGAVSISLDAEGETSPFYADGIVYFRSVTNNGYSGDLEIALIPEWFRTEILQEKLDAKGVLVENSGVGESVKFALLFEFDGDVNAIRHVLYNCSASRPSIESETKEDTIEPGTETLSITADPRSDGLVKARTGDTTDSGTYTNWYKAVYTPTEEEPEETSGEDESV | failed
MKLSIHGRKITLTDAIRKYAEEKISKVEKFNDSIIKIDATLAASKLKTGNAHVTEILAYLSGSTLKATATESDLYASIDKAVDIMESLLKKHKEKRSRAKVQDDTRKKSYSFDYIVEPEEKLSDEKKLVRVYLPLKPMEISEAILQLEYLNRVFFAFTNTTTGKMAVVYKRKDGDYGVIED | failed
MSILKVIKQKWVALGALLGSGALVGLSTNLAKVAYGQDLAPFPFLTWSLAGATLILGSISFLTKQTPPTNTGAIKYYFIAGFFSVAGSNLILFSAVSHVGVSFVVLVISLTPIFTYIAALALGMEIFSRWRVASVIFSLAGTALLVTAKLSLPETNHLWILITLIGPVLLASGNIYRTSHWPKGAKPESLAPGMLLAATATLVLAAISIQGVSLFALFNTENIGLIVLQSIIFSGQFLLLFVLQKAGGPVFLSLTGAVSAAFGIPFAMALLDEPMLPALAPSALLIVTGIIFMMKEQAISNA | failed
LSENTTPFGSVSQHDTQVNCQLQLNAANHLIVNEQTRNCFEYFLTQYGEKSLTQIDQDIKNYFTQSLPQPARDQAQDLWQRYLKYREELGNLKEPAIAKTDIAYYRAVFTSRQMLRQRFFSATEIAGLFGSEDIYNQYTLERMAILNNSKLSEIEKAKQLKALFDQLPQDWKANLEQLSKLDDLKQLTTSIKKNGGSAQELHDMRTNLVGHDATARLEQLDVERSNWKSNVTQYLDERQTILNSNMSDTAKQNAISALRSKNFTAPQDQIRVQAFESAKDQ | failed
MASSALCFFLMSDLFEPPPDFPARSALRRDCTACGACCSAPDIHALGKPLGVPCRFLGAENTQGACLCGIYLERPAVCRSYAPDWVCGEVAPLPTLEARIRRFLEIYGLDPVTGLEHHHHHH | failed
MAFRMSEQPRTIKIYNLLAGTNEFIGEGDAYIPPHTGLPANSTDIAPPDIPAGFVAVFNSDESSWHLVEDHRGKTVYDVASGDALFISELGPLPENVTWLSPEGEFQKWNGTAWVKDTEAEKLFRIREAEETKNNLMQVASEHIAPLQDAADLEIATEEEISLLEAWKKYRVLLNRVDTSTAQDIEWPALP | not failed
MYELERTVFQELFRRVLDNQYQVTPEERKALVQCDNSIVRRGIFSALTSFSLIYYGLKQFQKHFNASSSLRLRPAIPATLLGLTTGFFYGRTAAPGCLQNLMNVPNSAVAEEVKIIIRELYEQSPSSTTGQTIATRYGFLLDSTTVPMKISDVGFGDNENSDWKEVDTWQSDNSIYQGTVQKRVGPRNSDKRRVIRPNDKVENHIHQDALANSTSSLPSNETDYGFASLPGYSSSQSDSDVLESWDIGNDNQQENTNNEPNVKKESHRRRRRNEFRKSNGQVKSLESDPTEQGTIQTDTKDLLSSRQDTDALWDSSFSGKGSSATAF | failed
MFVGHLPGAYLIFRVVTPRIERMAFTAAMLGAIAPDLDMLRFYFVDGRAFHHHEYLTHRPILWTGLLLCGVLIGMRSRRIGVPLAFFGAGGLVHMLLDSIAGKIAWAWPVSDFAAPLVVVPATQSHWILSFLSHWTFAVELGITVLALVLWRWLPRRATARR | failed
MPCCSHRRCREDPGTSESQEMEEWALLDISQRKLYKEVMLETFRNLTSVGKSWKDQNIEYEYQNPRRNFRSLIEKKVNEIKDDSHCGETFTQVPDDRLNFQEKKASPEIKSCDSFVCGEVGLGNSSFNMNIRGDIGHKAYEYQEYGPKP | failed
MKRSDNVSWSQLKGGIFILVALAFFAGGVLLMGDKTKFFVPKGRLSVIMADVAGLKAGAPVWLAGVDVGVVTQIHFERPEATNEVEIVLEVDREALKKIGADSVVTVKTRGLMGEKYVDITPTREIVAKPVTRLQGTPMPKLDDVVQKAGRAFDRVDAIVAKTERGEGTLGRFASDPKLYDSLVRLTTELNAVAVSVNRGEGTLGMLNKSREPYEKLMSILNRADNTLTDIQSSEGTMSKLIHDRELYDKLVAVASKAGTAADEVRELNRRLLSKDGTLGKLVADREFYDRGLTLINRADTSLKSLEEVTARLQRGEGTAGKLLSDRELYDRLNRTVDDLDLLVKDIKENPKRYVKFSVFLEHHHHHH | failed
MTKSPARLISFISIAIAINLVGANLALFLRLPIYLDTIGTLLIAVILGPWYAASTAFLSALINWMTTDIFSLYYSPVAIVVAIITGILIKRNCKPSSLLWKSLIISLPGTIIASVITVILFKGITSSGSSIIAQFLHGIGLDMTSSLILVQVGTDYMDRLISLILVFSTITLLKKHSPNLINQRF | failed
